Assay results as given in the supplement of paper PMC9876800.

Tested on: peptide library, one residue held at a place counted from the S/T acceptor
Test: relative phosphorylation of the sub-library (ratio to the mean residue at this position); higher = residue favoured
Outline: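 Purified recombinant kinases, either human or orthologue constructs, were incubated in 384-well plates with biotinylated degenerate peptide sub-libraries. Each sub-library fixed one residue at one position around a central Ser/Thr. Peptides at 50 μM and 50 μM ATP spiked with γ-32P-ATP were used for 90 min under kinase-specific conditions, and spots on streptavidin membranes were phosphorimaged and quantified by densitometry. Relative sub-library phosphorylation is expressed as a ratio to the mean residue at that position.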

Sequence of TLK2, construct: aa388-end, human (Q86UE8 388-772, looked up): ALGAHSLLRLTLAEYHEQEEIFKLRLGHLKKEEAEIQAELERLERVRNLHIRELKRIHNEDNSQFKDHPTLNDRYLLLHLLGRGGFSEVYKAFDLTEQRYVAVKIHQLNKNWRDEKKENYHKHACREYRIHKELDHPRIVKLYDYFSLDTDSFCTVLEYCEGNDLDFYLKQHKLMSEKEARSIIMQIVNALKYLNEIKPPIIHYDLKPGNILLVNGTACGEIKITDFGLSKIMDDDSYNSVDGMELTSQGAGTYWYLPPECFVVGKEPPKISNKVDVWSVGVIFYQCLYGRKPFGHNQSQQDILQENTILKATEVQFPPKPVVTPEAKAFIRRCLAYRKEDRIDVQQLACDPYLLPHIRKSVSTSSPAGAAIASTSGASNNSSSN
Sequence of TRPM6, construct: aa1699-end, human (Q9BX84 1699-2022, looked up): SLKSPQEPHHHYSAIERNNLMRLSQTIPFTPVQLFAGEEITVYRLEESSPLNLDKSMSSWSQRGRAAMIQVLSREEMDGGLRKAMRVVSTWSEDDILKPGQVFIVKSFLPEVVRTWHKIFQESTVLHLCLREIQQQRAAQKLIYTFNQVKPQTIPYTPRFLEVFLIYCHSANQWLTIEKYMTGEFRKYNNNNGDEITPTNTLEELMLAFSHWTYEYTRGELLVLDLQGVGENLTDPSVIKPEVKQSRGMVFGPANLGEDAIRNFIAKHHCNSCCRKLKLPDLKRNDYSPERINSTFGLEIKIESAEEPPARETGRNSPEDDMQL
Sequence of TAOK3, construct: Full length with a 14aa C-terminal extension from Gateway cloning, human (Q9H2K8 whole entry, looked up): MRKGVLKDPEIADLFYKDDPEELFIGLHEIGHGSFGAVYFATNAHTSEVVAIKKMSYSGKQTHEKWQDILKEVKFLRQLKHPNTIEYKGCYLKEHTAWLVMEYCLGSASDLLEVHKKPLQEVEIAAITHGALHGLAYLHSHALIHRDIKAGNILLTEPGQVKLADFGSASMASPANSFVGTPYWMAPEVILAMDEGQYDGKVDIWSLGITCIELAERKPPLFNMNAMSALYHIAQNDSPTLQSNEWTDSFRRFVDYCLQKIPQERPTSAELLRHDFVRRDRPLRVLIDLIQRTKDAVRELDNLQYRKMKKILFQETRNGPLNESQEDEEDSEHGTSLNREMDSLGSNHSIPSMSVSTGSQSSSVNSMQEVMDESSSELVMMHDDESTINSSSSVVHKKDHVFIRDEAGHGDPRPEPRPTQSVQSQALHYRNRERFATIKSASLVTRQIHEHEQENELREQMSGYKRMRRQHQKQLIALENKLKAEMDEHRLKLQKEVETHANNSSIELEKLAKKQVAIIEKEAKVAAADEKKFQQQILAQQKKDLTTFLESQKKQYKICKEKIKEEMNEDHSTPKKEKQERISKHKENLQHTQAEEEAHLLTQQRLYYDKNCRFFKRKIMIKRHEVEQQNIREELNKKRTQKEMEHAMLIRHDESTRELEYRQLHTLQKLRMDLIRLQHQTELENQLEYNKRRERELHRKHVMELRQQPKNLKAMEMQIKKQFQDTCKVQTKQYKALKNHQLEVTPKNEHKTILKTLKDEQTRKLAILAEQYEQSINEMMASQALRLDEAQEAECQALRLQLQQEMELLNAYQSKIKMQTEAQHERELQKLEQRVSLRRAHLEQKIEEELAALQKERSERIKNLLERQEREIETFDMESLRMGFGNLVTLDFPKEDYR

TAOK3, construct: Full length with a 14aa C-terminal extension from Gateway cloning, human (from UniProt Q9H2K8)
relative phosphorylation
Details	at +1	at +2	at +3	at +4	at -1	at -2	at -3	at -4	at -5
A fixed	0.522	0.851	0.743	0.866	0.788	1.15	0.775	1.01	1.16
D fixed	0.371	0.801	0.592	0.65	0.99	1.03	0.879	1.47	1.59
E fixed	0.343	0.54	0.547	0.658	0.546	0.718	0.916	1.54	1.36
F fixed	1.34	0.424	0.68	0.771	0.709	1.35	0.543	0.663	0.81
G fixed	0.605	0.943	1.38	1.11	2.03	1.43	1.4	1.27	1.17
H fixed	0.973	1.21	1.19	1.18	1.28	0.92	0.95	1.04	1.09
I fixed	1.52	0.593	0.578	0.859	0.3	0.508	0.416	0.497	0.596
K fixed	0.647	2.32	2.11	1.76	1.54	0.836	2.45	1.15	1.35
L fixed	1.63	0.507	0.707	0.681	0.717	0.526	0.445	0.536	0.627
M fixed	1.52	0.612	0.606	0.718	0.911	0.805	0.566	0.682	0.629
N fixed	0.595	1.73	1.08	0.891	1.61	1.15	1.28	1.42	1.23
P fixed	0.551	1.09	1.14	0.945	0.707	1.17	1.23	1.38	0.984
Q fixed	0.685	0.941	0.987	1.04	1.08	0.856	1.12	1.12	0.961
R fixed	0.583	2.5	2.29	1.62	1.37	0.959	1.73	1.11	1.13
V fixed	1.05	0.659	0.558	0.753	0.373	0.541	0.459	0.562	0.634
W fixed	2.79	0.578	0.971	1.19	0.807	0.932	0.832	0.819	0.92
Y fixed	1.28	0.704	0.854	1.31	1.24	2.12	1	0.726	0.781
pThr fixed	0.887	0.729	0.858	0.782	0.588	1.11	1.23	1.49	1.36
pTyr fixed	0.719	0.757	0.752	0.848	2.28	1.3	1.18	1.33	1.47

TLK2, construct: aa388-end, human (from UniProt Q86UE8)
relative phosphorylation
Details	at +1	at +2	at +3	at +4	at -1	at -2	at -3	at -4	at -5
A fixed	0.501	0.95	1.3	1.23	1.13	1.14	1.07	1.1	1.22
D fixed	0.281	1.07	1.01	1.06	0.949	2.24	2	1.67	1.91
E fixed	0.329	0.512	1.33	0.879	0.751	3.21	1.46	1.68	1.45
F fixed	0.533	1.32	1.19	1.26	1.04	0.553	0.674	0.878	0.801
G fixed	0.36	1.69	1.69	1.24	0.72	1.69	1.42	1.27	1.19
H fixed	0.799	1.45	0.932	0.899	1.6	1.05	0.979	1.07	1.05
I fixed	0.995	0.768	0.583	0.843	0.542	0.435	0.531	0.668	0.621
K fixed	0.624	0.451	0.52	0.603	0.95	0.502	0.702	0.703	0.879
L fixed	1.34	0.873	0.654	0.867	0.61	0.418	0.637	0.678	0.663
M fixed	2.11	1.27	0.823	0.913	0.862	0.592	0.77	0.857	0.737
N fixed	2.41	0.671	0.682	0.692	1.29	1.22	1.26	1.19	1.08
P fixed	0.225	1.03	1.66	1.79	0.634	0.77	1.36	1.17	1
Q fixed	2.67	1.19	0.765	0.782	1.23	1.06	0.972	0.852	0.865
R fixed	1.53	0.482	0.483	0.506	0.827	0.499	0.743	0.674	0.814
V fixed	1.06	0.675	0.814	0.944	0.807	0.495	0.584	0.684	0.72
W fixed	0.686	1.62	1.42	1.35	1.58	0.5	0.953	1.06	1.1
Y fixed	0.543	0.974	1.13	1.13	1.48	0.638	0.879	0.803	0.894
pThr fixed	0.552	0.633	1.09	1.41	0.434	0.883	1.29	1.31	1.31
pTyr fixed	0.65	1.52	1.94	1.76	1.4	2.55	1.35	1.36	1.4

TRPM6, construct: aa1699-end, human (from UniProt Q9BX84)
relative phosphorylation
Details	at +1	at +2	at +3	at +4	at -1	at -2	at -3	at -4	at -5
A fixed	0.996	1.48	2.44	0.962	0.767	0.976	0.898	1.12	1.29
D fixed	0.396	0.307	0.4	0.983	0.669	0.615	0.898	1	1.12
E fixed	0.732	0.319	0.381	0.993	0.577	0.678	0.928	1.11	1.22
F fixed	0.824	1.31	0.776	0.816	0.504	1.03	0.829	0.991	1.02
G fixed	0.509	0.788	1.09	1.33	0.421	1.36	1.06	1.35	1.43
H fixed	1.08	0.995	0.992	1.01	1.24	0.768	1.08	0.911	1.11
I fixed	1.19	0.651	0.394	0.755	0.46	0.519	0.825	0.819	0.69
K fixed	2.27	0.855	2.27	1.27	4.26	0.678	1.18	0.887	1.12
L fixed	0.909	0.92	0.633	0.705	0.673	0.772	0.928	0.81	0.696
M fixed	0.816	1.38	0.708	0.88	0.576	1.17	0.838	0.914	0.767
N fixed	0.685	0.66	1.04	0.945	1.08	0.731	1.34	0.931	1
P fixed	0.376	2.29	0.963	1.3	0.964	1.74	1.5	1.35	0.904
Q fixed	1.36	0.956	0.827	1.27	0.892	0.773	1.14	1.08	1.07
R fixed	1.96	0.942	1.83	1.02	2.16	0.609	0.963	0.901	0.928
V fixed	0.903	0.562	0.539	0.805	0.51	0.609	0.737	0.789	0.747
W fixed	0.873	1.28	0.679	1.01	0.464	3.23	1.09	1.16	0.996
Y fixed	1.12	1.3	1.04	0.948	0.78	0.746	0.774	0.875	0.884
pThr fixed	0.646	0.552	0.592	1.04	0.7	0.837	1.1	1.2	1.21
pTyr fixed	1.15	0.701	0.772	0.915	0.729	0.729	0.959	1.02	0.79

TSSK2, construct: Full length, human (from UniProt Q96PF2)
relative phosphorylation
Details	at +1	at +2	at +3	at +4	at -1	at -2	at -3	at -4	at -5
A fixed	0.97	0.852	0.804	0.774	1.18	1.86	1.24	1.3	1.2
D fixed	0.871	0.578	1.44	0.8	0.771	0.379	0.466	0.655	0.247
E fixed	1.25	0.793	0.998	0.629	0.932	0.42	0.671	1.04	0.216
F fixed	1.06	1.27	1.37	1.43	0.685	0.699	0.589	0.583	0.882
G fixed	0.625	0.388	0.688	0.663	0.74	0.939	1.19	1.22	0.439
H fixed	1.05	2.95	1.53	0.822	0.874	0.952	0.933	1.12	0.518
I fixed	0.683	1.3	0.642	1.47	0.673	0.954	0.734	0.816	1.75
K fixed	1.41	0.47	1.04	0.766	1.68	2.3	1.86	1.99	0.569
L fixed	0.92	1.27	0.834	1.98	0.847	0.55	0.67	0.877	3.08
M fixed	0.965	1.1	0.944	1.51	0.893	0.725	0.668	1.19	1.32
N fixed	1.25	0.861	1.49	0.942	0.96	1.17	0.824	0.829	0.393
P fixed	0.143	0.438	0.324	0.846	1.72	0.513	1.27	0.348	1.34
Q fixed	1.31	1.09	0.95	0.882	1.41	1.08	0.935	0.849	0.71
R fixed	1.78	0.574	1.11	0.648	1.49	1.77	2.96	1.85	0.952
V fixed	0.867	1.02	0.677	1.25	0.763	1.47	0.802	0.921	2.15
W fixed	0.789	0.915	1.28	0.941	0.6	0.452	0.598	0.594	0.541
Y fixed	1.06	1.13	0.887	0.646	0.788	0.779	0.587	0.808	0.69
pThr fixed	1.02	0.78	0.485	0.581	0.426	0.262	0.804	0.734	0.503
pTyr fixed	0.925	0.79	0.814	0.556	0.831	0.284	0.641	0.428	0.752
